Assay results from patent US20190247546A1, “METHOD FOR FORMING A FUNCTIONAL NETWORK OF HUMAN NEURONAL AND GLIAL CELLS” (LEIBNIZ-INSTITUT FÜR POLYMERFORSCHUNG DRESDEN E.V., priority 2016, published 2019).
“Also recorded” adds a separate entry of the source.

How the values were obtained:
[1] = test system: cells embedded in PEG-heparin hydrogel, transfected with calcium sensor; test: Response to neurotransmitter glutamate, calcium sensor fluorescence in hydrogel-embedded cells; assay type: cell-based, human; settings: after addition of glutamate
Description: FIG. 5 depicts the results of the measurement of the total fluorescence intensities in the case of addition of the neurotransmitter glutamate. […] The cells in image A2 are embedded in a PEG-heparin hydrogel system before the addition of the neurotransmitter glutamate. Images A3 and A4 show a high magnification of a Gcampf6-transfected cell which is embedded in the PEG-heparin hydrogel system.

[2] = test system: primary human cortical cells (PHCCs); test: Aβ42 neurotoxicity model, PHCCs in 3D star-PEG-heparin hydrogel; assay type: cell-based
Experimental: FIG. 11 contains a graphic depiction of the preparation of the PEG-heparin hydrogel for the investigation of the effect of amyloid β 42 peptides (Aβ42) in primary human cortical cells. Cells of the second passage were placed into a Petri dish in a density of 5×10^3 per cm^2 in step 1. For the purposes of the Aβ42 neurotoxicity model, cells of the second passage were likewise placed in a Petri dish in a density of 5×10^3/cm^2 and incubated for 48 hours with 2 μM Aβ42 (step 1′).
After 48 hours, the cells were harvested and resuspended in phosphate-buffered saline solution (PBS) at a concentration of 8×10^6 cells per ml in a step 2. Then, the same volume of heparin solution (45 μg/μl in PBS) was added and the two were mixed to give a final concentration of 4×10^6 cells/ml in a step 3. In the case of the coating of the extracellular environment of the cells embedded in the PEG-heparin hydrogel system with […], a mixture of Aβ42 peptide in a concentration of 40 μM was added in step 3′.
To cast a gel, the cell solution, PBS and heparin in step 3 were mixed with the same volume of star-PEG. […] The reactions for gel formation last two minutes. After the casting, the gels were placed into 24-well culture plates, with each well containing a culture medium. To culture and to incubate the gels, a ratio of 5% CO2/95% air at 37° C. was used. Gels can be cultured until the desired time point.
Amyloid β 42 peptide, a misfolded protein relevant to Alzheimer's disease, was also used in order to model its toxicity and its effects on neuronal networks. The method according to the invention using a three-dimensional hydrogel system for culturing can, in this way, also be used as a model for neurodegenerative diseases. […] To investigate whether amyloid β 42 (Aβ42) influences the neuronal network, cultures were generated by treating the cells with Aβ42 before introduction into the hydrogel system (intracellular Aβ42) or incubating the hydrogels with Aβ42 before introduction of the cells (extracellular Aβ42). […] Furthermore, the three-dimensional hydrogel system can be used as a practical screening platform for testing compounds which might restore the neurogenic capacity of human stem cells and the formation of neuronal networks even in the presence of Aβ42.
To use gels which were pretreated with amyloid β 42 (Aβ42), the cells were incubated with 2 μM Aβ42 for 48 hours prior to the cell collection from the culture vessel and prior to the embedding of the cells in the hydrogel. To generate a gel environment which contains Aβ42, the cells were first dissolved in 4 μl of 100 μM Aβ42 peptide in PBS. 6 μl of the heparin solution (0.448 mg of HEP-HM6 dissolved in 6 μl of PBS) and 10 μl of the starPEG-MMP solution (0.347 mg of starPEG-MMP dissolved in 10 μl of PBS) were added and, as described above, mixed. In this gel mixture, the concentration of Aβ42 is 20 μM and the concentration of the cells is 2×10^6 cells per ml.
To use gels which were pretreated with amyloid β 42 (Aβ42), the cells were incubated with 2 μM Aβ42 for 48 hours prior to the cell collection from the culture vessel and prior to the embedding of the cells in the hydrogel.
All hydrogels were fixed with ice-cold paraformaldehyde and incubated at room temperature for 1.5 h, followed by a wash in PBS overnight at 4° C. […]
For the hydrogels, fluorescence recordings were carried out using a Leica SP5 inverted confocal and multiphoton microscope. […]

[3] = test system: primary human cortical cells (PHCCs); test: Effect of IL-4 on Aβ42 toxicity, PHCCs in star-PEG-HEP hydrogels; assay type: cell-based
Experimental: To test whether IL-4 acts in humans in a similar manner as could be previously shown in zebrafish investigations for example, the abovementioned star-PEG-HEP hydrogels containing PHCCs were used. To this end, hydrogels containing embedded PHCCs were prepared and they were incubated with Aβ42, as already described. Each test setup contained a positive (with Aβ42) and a negative control group (without Aβ42) as well as an experimental group with Aβ42 and IL-4. In the experimental group, the star-PEG-HEP gels containing embedded PHCCs were cultured with Aβ42 and, at the same time, in the presence of 100 ng/ml IL-4 in the medium. After a three-week culturing phase, the samples were fixed and immunologically stained with respect to GFAP and SOX2 in order to investigate effects of IL-4 on the neural stem and progenitor cells. The nucleus dye DAPI was used in order to show entire cells. […] It can be concluded that the treatment with interleukin 4 stimulates GFAP-positive cells in relation to proliferation to form more neuronal stem and progenitor cells. IL-4 thus increases the neuroplasticity of the embedded PHCCs despite the presence of neurotoxic Aβ42. […] IL-4 is thus an important candidate for future therapies against Aβ42-mediated neurodegeneration.

[4] = Aβ42-treated gels compared with control gels

Question: With `N[C@@H](CCC(=O)O)C(=O)O` [glutamate] as the molecule, how does the “fluorescence signal of calcium sensor (intracellular calcium influx)” value [1] read?
Answer: increased fluorescence signal; also recorded: increase in the intracellular calcium level

Question: Which “number of branches per network” value [2, 4] does the source give for “Aβ42: Amyloid β 42 peptide, a misfolded protein relevant to Alzheimer's disease” here?
Answer: significantly lower

Question: And the number of cells [2, 4]?
Answer: significantly reduced

Question: And the number of networks [2, 4]?
Answer: significantly reduced

Question: And the effect on axons ([2]; Aβ42 treatment)?
Answer: dystrophy of axons

Question: What about the neuronal network formation ([2]; intracellular and extracellular Aβ42, compared with control gels) of the same molecule?
Answer: significant impairment

Question: And the “cell count (GFAP-positive and SOX2-positive cells)” value ([3]; Aβ42-treated cultures vs untreated control, three-week culture)?
Answer: strong decline

B1: IL-4: interleukin 4 (protein, UniProt P05112 25-153, looked up)
Interleukin-4: HKCDITLQEIIKTLNSLTEQKTLCTELTVTDIFAASKNTTEKETFCRAATVLRQFYSHHEKDTRCLGATAQQFHRHKQLIRFLKRLDRNLWGLAGLNSCPVKEANQSTLENFLERLKTIMREKYSKCSS
Question: How did the “proliferation of human neuronal stem cells” value ([3]; Aβ42 plus 100 ng/ml IL-4) turn out when B1 was run?
Answer: activates the proliferation

Question: What about the cell count ([3]; Aβ42 plus 100 ng/ml IL-4 in the medium, three-week culture) of the same molecule?
Answer: altogether comparable with the control cultures without Aβ42 treatment
